One assay deals with CLR–RAMP1. To be noted: ref [43]; cited from earlier work. The text has this: As RAMP3 expression varies between tissues, it is possible that by directly targeting this complex, tissue-specific receptor activation could be facilitated. […] Agonists that have reduced affinity for the RAMP3 complex over the receptor alone ...
Assay [1] concerns INS-1 832/3 cells. To be noted: 10 nM GIP, […] glucose.
Another assay relates to GIPR. To be noted: Min6 B1, 8-min stimulation, n = 4.
A further assay deals with Min6 B1 cells. Description: Insulin secretion in siRNA-treated Min6 B1 cells. The following applies: 10 nM and 1 nM agonist, n = 4.
In assay [2] the target is T1, Nluc–GLP-1R (Homo sapiens, UniProt P43220).
T1 sequence (P43220 24-463): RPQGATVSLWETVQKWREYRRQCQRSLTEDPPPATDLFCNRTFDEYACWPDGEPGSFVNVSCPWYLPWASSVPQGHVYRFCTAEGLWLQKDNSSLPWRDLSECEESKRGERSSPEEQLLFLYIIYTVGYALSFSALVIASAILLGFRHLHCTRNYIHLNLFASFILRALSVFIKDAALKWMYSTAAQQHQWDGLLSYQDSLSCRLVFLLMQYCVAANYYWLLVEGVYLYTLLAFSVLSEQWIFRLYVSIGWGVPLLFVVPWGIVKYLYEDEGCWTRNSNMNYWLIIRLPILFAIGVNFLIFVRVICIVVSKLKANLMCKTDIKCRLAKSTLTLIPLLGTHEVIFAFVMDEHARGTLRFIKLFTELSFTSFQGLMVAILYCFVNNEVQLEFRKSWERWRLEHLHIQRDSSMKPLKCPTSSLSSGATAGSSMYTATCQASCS
Assay [3] deals with T1, Nluc–GLP-1R. In kind it is cell-based. More on the design: signal peptide of murine serotonin 5-HT3R (sig) (N); expressed in transfected cells; host or cells: HEK293T. To be noted: HEK293T, absence of RAMP3.
The target in assay [4] is T1, Nluc–GLP-1R. In kind it is cell-based. The following applies: HEK293T; over the concentration range tested. More on the design: signal peptide of murine serotonin 5-HT3R (sig) (N); expressed in transfected cells; host or cells: HEK293T.
The subject of another assay is GCGR with RAMP2. To be noted: GCGR coexpressed with RAMP2; ref [13]; cited from earlier work.
Assay [5] relates to INS-1 832/3 cells. The experiment in a line: Glucose-stimulated insulin secretion in INS-1 832/3 cells, GLP-1R agonists. In kind it is cell-based, rat. The following applies: 10 nM GLP-1; for effect of inhibitor on GLP-1-mediated insulin secretion: vector- and RAMP3-transfected, 30 min pretreatment, normalized to 10 nM GLP-1 + 0.1% DMSO.
The next assay deals with GLP-1R–Nluc (human) (UniProt P43220).
GLP-1R–Nluc (human), sequence (P43220 24-463): as above
For assay [6] the following is noted: ref [3]; cited from earlier work. The text has this:
The incretin effect, whereby oral glucose elevates plasma insulin levels to a greater degree than intravenous administration, was first observed in 1964 ([1]). This is mediated by incretin hormones, the best known of which are GLP-1 and the glucose-dependent insulinotropic polypeptide (GIP). […] However, newer m ...

“Also recorded” adds a separate entry of the source. Numbered stars: 1 amine (or outer) side, 2 acyl side, 3 side chain; on linkers, the order of the positions; unused ones are H or OH. Bridge positions count the residues as written; N and C are the ends. Square brackets hold non-standard residues; d marks the D form. Peptide text beside a SMILES is read from it. X1 = CC(=O)NC(C(=O)OC(C(C)C)C(N[*:1])C(=O)[*:2])C(O)C(C)C; PhLac = O=C(O)[CH](O)Cc1ccccc1; NMeT = CN[CH](C(=O)O)[CH](C)O; NMeA = CN[CH](C)C(=O)O; NMeDha = C=C(NC)C(=O)O

Consider `NCCCC[C@H](NC(=O)[C@@H](Cc1cc(Br)c(O)c(Br)c1)NC(=O)N1CCC(N2Cc3ccccc3NC2=O)CC1)C(=O)N1CCN(c2ccncc2)CC1` [BIBN 4096 BS], for which the “disruption of receptor–RAMP interaction” value in the assay with CLR–RAMP1 is on record as “disrupt the interaction”.

As for “glucose-dependent insulinotropic polypeptide [GIP]”, in the assay with INS-1 832/3 cells [1], the “effect of RAMP1 transfection on insulin secretion” value is reported as “increased insulin secretion” and the “effect of RAMP3 transfection on insulin secretion” value is “increased insulin secretion”. In addition, the “effect of RAMP3 siRNA on cAMP accumulation” value in the assay on GIPR is on record as “no effect”. In the assay on Min6 B1 cells, the “effect of RAMP3 knockdown on insulin secretion” value is recorded as “unaffected”.

For “exendin-4 (from UniProt P26349 48-87) (peptide)”, in the assay with Nluc–GLP-1R [2], the Ca^2+ mobilization, HEK293T, + 2xFLAG-RAMP3; pEC50 was determined as 8.6 pEC50; the Ca^2+ mobilization, HEK293T, receptor alone; pEC50 is 6.9 pEC50; the cAMP accumulation, 8-min stimulation, HEK293T, + 2xFLAG-RAMP3; pEC50 came to 11.3 pEC50; the cAMP accumulation, 8-min stimulation, HEK293T, + FLAG-RAMP3; pEC50 is 11.6 pEC50. In addition, in the assay with Nluc–GLP-1R [2], the cAMP accumulation, 8-min stimulation, HEK293T, receptor alone; pEC50 amounted to 11.7 pEC50; the cAMP accumulation, 30-min stimulation, HEK293T, + 2xFLAG-RAMP3; pEC50 worked out at 12.4 pEC50; the cAMP accumulation, 30-min stimulation, HEK293T, + FLAG-RAMP3; pEC50 turned out to be 12.8 pEC50; the cAMP accumulation, 30-min stimulation, HEK293T, receptor alone; pEC50 was 13.1 pEC50.

For the compound GLP-1 (9–36), the “(Ca^2+)i mobilization” value at Nluc–GLP-1R [3] is given as “unable to elicit any (Ca^2+)i mobilization”. Further, the cAMP production result on Nluc–GLP-1R [4] is given as “did not elicit sufficient cAMP production over the concentration range tested”.

For the compound glucagon: agonist of GCGR (cited), the “effect of RAMP2 on Gαs coupling/response at GCGR” value in the assay with GCGR with RAMP2 was “increasing Gαs coupling”.

On to `Nc1ncnc2c1nc(Br)n2C1OC2COP(O)(=S)OC2C1O` (stereo not shown) [Rp-8-Br-cAMPs], for which the “effect of inhibitor on GLP-1-mediated insulin secretion” value in the assay with INS-1 832/3 cells [5] is listed as “no effect; also recorded: unaffected”.

In the case of liraglutide (peptide), in the assay with Nluc–GLP-1R [2], the Ca^2+ mobilization, HEK293T, + 2xFLAG-RAMP3; pEC50 is 7.5 pEC50; the Ca^2+ mobilization, HEK293T, + FLAG-RAMP3; pEC50 is 7.4 pEC50; the Ca^2+ mobilization, HEK293T, receptor alone; pEC50 was found to be 7.5 pEC50; the cAMP accumulation, 8-min stimulation, HEK293T, + 2xFLAG-RAMP3; pEC50 worked out at 9.9 pEC50. Moreover, in the assay with Nluc–GLP-1R [2], the cAMP accumulation, 8-min stimulation, HEK293T, + FLAG-RAMP3; pEC50 came out at 10.3 pEC50; the cAMP accumulation, 30-min stimulation, HEK293T, + 2xFLAG-RAMP3; pEC50 turned out to be 10.1 pEC50; the cAMP accumulation, 30-min stimulation, HEK293T, + FLAG-RAMP3; pEC50 amounted to 10.3 pEC50; the cAMP accumulation, 30-min stimulation, HEK293T, receptor alone; pEC50 turned out to be 10.4 pEC50. In the assay with GLP-1R–Nluc (human), the internalization (loss of BRET with RIT-Venus), HEK293T, + 2xFLAG-RAMP3; pEC50 stood at 7.6 pEC50; the internalization (loss of BRET with RIT-Venus), HEK293T, + FLAG-RAMP3; pEC50 stood at 8.2 pEC50; the internalization (loss of BRET with RIT-Venus), HEK293T, receptor alone; pEC50 is 8.5 pEC50; the β-arrestin1–YFP recruitment (BRET), HEK293T, + 2xFLAG-RAMP3; pEC50 turned out to be 7.5 pEC50. Moreover, in the assay with GLP-1R–Nluc (human), the β-arrestin1–YFP recruitment (BRET), HEK293T, + FLAG-RAMP3; pEC50 turned out to be 7.1 pEC50; the β-arrestin1–YFP recruitment (BRET), HEK293T, receptor alone; pEC50 came out at 7 pEC50; the β-arrestin2–YFP recruitment (BRET), HEK293T, + 2xFLAG-RAMP3; pEC50 is 7.5 pEC50; the β-arrestin2–YFP recruitment (BRET), HEK293T, + FLAG-RAMP3; pEC50 is 7.1 pEC50. The β-arrestin2–YFP recruitment (BRET), HEK293T, receptor alone; pEC50 with GLP-1R–Nluc (human) is 7.3 pEC50.

As to Semaglutide, the “protection against neurodegeneration and neuroinflammation” value in [6] was “protect against neurodegeneration and neuroinflammation”.

Turning to `CC(C)(C)c1cc(C(=O)/C(C#N)=N/Nc2cccc(Cl)c2)no1` [ESI-09], in the assay with INS-1 832/3 cells [5], the “effect of inhibitor on GLP-1-mediated insulin secretion” value is “significantly decreased; also recorded: significantly reduced insulin secretion”.

Regarding `C=C1C(=O)NC(C)C(=O)N(C)C(C)C(=O)NC(C(OC(=O)C(NC(C)=O)C(O)C(C)C)C(C)C)C(=O)N(C)C(C(C)OC)C(=O)OC(C)C(NC(C)=O)C(=O)OC(Cc2ccccc2)C(=O)N1C` (stereo not shown) [YM-254890] (Ac-T[PhLac][NMeDha]A[NMeA][X1][NMeT](Me); ester 1-C; configuration not given here), the “effect of inhibitor on GLP-1-mediated insulin secretion, RAMP3 vs vector” value in the assay on INS-1 832/3 cells [5] (YM-254890 100 nM, PTX 0.2 ng/μl) is given as “decreased insulin secretion significantly only when RAMP3 was overexpressed; also recorded: only reduced insulin secretion in cells overexpressing RAMP3”.

The record behind these values is PMC12624773, “Receptor activity–modifying protein 3 enhances GLP-1-mediated insulin secretion” (The Journal of Biological Chemistry, 2025).
